How the values were obtained:
human BST2D = molecular target: T1, human BST2D (human, UniProt Q10589 1-161); assay: flow cytometry of hybridoma supernatant on 293T cells expressing human BST2D
T1 construct: Transmembrane glycoprotein, splicing variant D, 180 residues; also called type D BST2; BST2D-CHO cells
Experimental: The hybridoma culture supernatants were analyzed by flow cytometry (FCM). The cells prepared as described in A of Example 1 were suspended in 0.5% BSA/2 mM EDTA/PBS, and collected into centrifuge tubes at 1×10⁵ cells/sample. 40 μl of each hybridoma culture supernatant was added, and the tubes were incubated at room temperature for 30 minutes. Then, a 1-ml aliquot of 0.5% BSA/2 mM EDTA/PBS was added to each tube, the tubes were centrifuged for three minutes at 1200 rpm and 4° C., and the supernatants were discarded; this washing process was repeated twice. A 40-μl aliquot of 100× diluted FITC-labeled goat anti-mouse IgG antibody (Beckman coulter; IM0819) was added to each tube after washing. The tubes were incubated at room temperature for 30 minutes. Following two rounds of washing, the hybridoma culture supernatants were analyzed with flow cytometer FC500 (Beckman coulter) to assess whether the antibody in the supernatants could specifically recognize human BST2D. […] The selected hybridomas were cloned by the limiting dilution method. The resulting hybridomas producing mouse anti-human BST2 antibody were named #3LD, #4LD, #7LD, #9LD, and #19LD.

[1] = molecular target: T2, His-tagged recombinant human BST2 protein K(47)-D(150) (human, UniProt Q10589 47-150); assay: Western blot of His-tagged BST2 fragment, 1 µg/ml antibody
T2 construct: Expressed in E. coli BL21(DE3); denatured and reduced for Western blotting; also called lane 4: K(47)------D(150); not shown: N-terminal His tag supplied by vector pET32
T2 sequence: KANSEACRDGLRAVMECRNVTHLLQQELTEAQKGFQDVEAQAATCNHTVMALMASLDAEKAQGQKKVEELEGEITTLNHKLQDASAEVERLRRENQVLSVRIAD
Experimental: (§1) The His-tagged human BST2 proteins (synthesized as described in A) were each dissolved in sample buffer, and heated at 70° C. for ten minutes. The dissolved proteins were fractionated on a 4-20% SDS-PAGE gradient gel (Invitrogen) and transferred onto PVDF membrane (Millipore). The membrane was blocked with BSA and incubated with 1 μg/ml antibody 4LD or 2000× diluted anti-His tag antibody (Novagen). After reaction with an HRP-labeled anti-mouse IgG antibody (Jackson), ECL Detection Reagent (GE Healthcare) was reacted for chemical luminescence, and the His-tagged human BST2 proteins were detected using LAS-1000 from Fuji Film.

[2] = molecular target: T3, His-tagged recombinant human BST2 protein E(133)-Q(180) (human, UniProt Q10589 133-180, not fully specified); assay: as above
T3 construct: Expressed in E. coli BL21(DE3); denatured and reduced for Western blotting; not shown: N-terminal His tag supplied by vector pET32
T3 chain: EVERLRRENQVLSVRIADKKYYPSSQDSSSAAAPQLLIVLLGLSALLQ
Experimental: as §1

[3] = molecular target: T4, His-tagged recombinant human BST2 protein K(47)-R(147) (human, UniProt Q10589 47-147); assay: as above
T4 construct: Expressed in E. coli BL21(DE3); denatured and reduced for Western blotting; not shown: N-terminal His tag supplied by vector pET32
T4 sequence: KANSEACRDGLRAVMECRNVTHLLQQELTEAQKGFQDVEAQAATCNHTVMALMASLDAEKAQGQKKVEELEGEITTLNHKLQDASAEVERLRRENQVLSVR
Experimental: as §1

[4] = molecular target: T5, His-tagged recombinant human BST2 protein K(47)-I(148) (human, UniProt Q10589 47-148); assay: as above
T5 construct: Expressed in E. coli BL21(DE3); denatured and reduced for Western blotting; also called lane 6: K(47)----I(148); not shown: N-terminal His tag supplied by vector pET32
T5 sequence: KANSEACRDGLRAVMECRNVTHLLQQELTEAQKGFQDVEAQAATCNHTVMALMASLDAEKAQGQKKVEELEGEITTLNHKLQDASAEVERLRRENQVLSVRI
Experimental: as §1

[5] = molecular target: T6, His-tagged recombinant human BST2 protein K(47)-P(155) (human, UniProt Q10589 47-155); assay: as above
T6 construct: Expressed in E. coli BL21(DE3); denatured and reduced for Western blotting; also called lane 3: K(47)----------P(155); not shown: N-terminal His tag supplied by vector pET32
T6 sequence: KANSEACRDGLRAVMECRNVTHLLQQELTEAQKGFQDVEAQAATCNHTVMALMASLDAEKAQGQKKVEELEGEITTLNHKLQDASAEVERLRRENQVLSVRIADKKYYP
Experimental: as §1

[6] = molecular target: T7, His-tagged recombinant human BST2 protein A(132)-Q(180) (human, UniProt Q10589 132-180, not fully specified); assay: as above
T7 construct: Expressed in E. coli BL21(DE3); denatured and reduced for Western blotting; also called lane 5: A(132)--Q(180); not shown: N-terminal His tag supplied by vector pET32
T7 chain: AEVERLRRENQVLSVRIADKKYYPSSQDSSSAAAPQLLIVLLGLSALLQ
Experimental: as §1

[7] = molecular target: T8, His-tagged recombinant human BST2 protein S(131)-Q(180) (human, UniProt Q10589 131-180, not fully specified); assay: as above
T8 construct: Expressed in E. coli BL21(DE3); denatured and reduced for Western blotting; also called lane 4: S(131)-Q(180); not shown: N-terminal His tag supplied by vector pET32
T8 chain: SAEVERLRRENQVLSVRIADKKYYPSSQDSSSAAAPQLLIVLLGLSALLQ
Experimental: as §1

[8] = molecular target: T9, His-tagged recombinant human BST2 protein K(47)-A(149) (human, UniProt Q10589 47-149); assay: as above
T9 construct: Expressed in E. coli BL21(DE3); denatured and reduced for Western blotting; also called lane 5: K(47)-----A(149); not shown: N-terminal His tag supplied by vector pET32
T9 sequence: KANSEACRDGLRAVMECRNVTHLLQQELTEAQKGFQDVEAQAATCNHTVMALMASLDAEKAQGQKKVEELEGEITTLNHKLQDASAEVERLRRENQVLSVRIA
Experimental: as §1

[9] = molecular target: BST2 on human myeloma-derived RPMI8226 cells (human) (UniProt Q10589); assay: flow cytometry on RPMI8226 cells, Kd calculated with Prism 4 from percentage of staining at 0.01-10 µg/ml
[10] = molecular target: T10, His-tagged recombinant human BST2 protein K(47)-S(145) (human, UniProt Q10589 47-145); assay: Western blot of His-tagged BST2 fragment
T10 construct: Expressed in E. coli BL21(DE3); denatured and reduced for Western blotting; also called lane 9: K(47)-S(145); not shown: N-terminal His tag supplied by vector pET32
T10 sequence: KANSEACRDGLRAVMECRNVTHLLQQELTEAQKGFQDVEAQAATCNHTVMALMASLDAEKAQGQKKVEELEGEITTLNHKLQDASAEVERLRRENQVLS
Experimental: as §1

[11] = molecular target: T11, His-tagged recombinant human BST2 protein K(47)-V(146) (human, UniProt Q10589 47-146); assay: Western blot of His-tagged BST2 fragment
T11 construct: Expressed in E. coli BL21(DE3); denatured and reduced for Western blotting; also called lane 8: K(47)--V(146); not shown: N-terminal His tag supplied by vector pET32
T11 sequence: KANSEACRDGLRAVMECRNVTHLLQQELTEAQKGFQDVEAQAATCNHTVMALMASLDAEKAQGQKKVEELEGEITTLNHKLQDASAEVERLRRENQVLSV
Experimental: as §1

[12] = molecular target: T12, His-tagged recombinant human BST2 protein L(137)-Q(180) (human, UniProt Q10589 137-180, not fully specified); assay: Western blot of His-tagged BST2 fragment
T12 construct: Expressed in E. coli BL21(DE3); denatured and reduced for Western blotting; also called lane 10: L(137)-------Q(180); not shown: N-terminal His tag supplied by vector pET32
T12 chain: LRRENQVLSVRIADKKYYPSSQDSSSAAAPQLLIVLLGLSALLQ
Experimental: as §1

[13] = molecular target: T13, His-tagged recombinant human BST2 protein V(134)-Q(180) (human, UniProt Q10589 134-180, not fully specified); assay: Western blot of His-tagged BST2 fragment
T13 construct: Expressed in E. coli BL21(DE3); denatured and reduced for Western blotting; also called lane 7: V(134)----Q(180); not shown: N-terminal His tag supplied by vector pET32
T13 chain: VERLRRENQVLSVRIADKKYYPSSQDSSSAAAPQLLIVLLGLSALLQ
Experimental: as §1

[14] = molecular target: T14, His-tagged recombinant human BST2 protein E(135)-Q(180) (human, UniProt Q10589 135-180, not fully specified); assay: Western blot of His-tagged BST2 fragment
T14 construct: Expressed in E. coli BL21(DE3); denatured and reduced for Western blotting; also called lane 8: E(135)-----Q(180); not shown: N-terminal His tag supplied by vector pET32
T14 chain: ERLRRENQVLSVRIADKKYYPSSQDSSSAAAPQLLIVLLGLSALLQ
Experimental: as §1

[15] = molecular target: T15, His-tagged recombinant human BST2 protein R(136)-Q(180) (human, UniProt Q10589 136-180, not fully specified); assay: Western blot of His-tagged BST2 fragment
T15 construct: Expressed in E. coli BL21(DE3); denatured and reduced for Western blotting; also called lane 9: R(136)------Q(180); not shown: N-terminal His tag supplied by vector pET32
T15 chain: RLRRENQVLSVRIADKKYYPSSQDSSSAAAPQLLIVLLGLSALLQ
Experimental: as §1

human BST2H = molecular target: T16, human BST2H (human); assay: flow cytometry on BST2H-CHO cells
T16 construct: Expressed from pcDNA3.1-hBST2H on CHO-K1 cells (BST2H-CHO line); Splicing variant H, 158 residues; also called type H BST2; BST2H-CHO cells
T16 chain: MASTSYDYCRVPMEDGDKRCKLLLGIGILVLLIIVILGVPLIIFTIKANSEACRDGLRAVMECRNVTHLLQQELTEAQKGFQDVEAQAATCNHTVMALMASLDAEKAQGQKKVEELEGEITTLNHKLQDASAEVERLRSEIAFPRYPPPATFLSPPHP

B1: mouse anti-human BST2 monoclonal antibody #4LD (antibody, V domains shown)
VH: DVQLQESGPGLVKPSQSLSLTCSVTGYSITSGYYWNWIRQFPGNKLEWMGYISYDGSNNYNPSLKNRISITRDTSKNQFFLKLNSVTTEDTATYYCAILGRGYWGQGTTLTVSS
VL: DIVLTQSPASLAVSLGQRATISCRASQSVSTSSYSYMHWYQQKPGQPPKLLIKYASNLESGVPARFSGSGSGTDFTLNIHPVEEEDTATYYCQHSWEIPYTFGGGTKLEIK
notes: Purified from hybridoma #4LD (FERM BP-10964); also called mouse antibody #4LD; anti-human BST2(D+/H-) antibody
Question: Does B1 bind (human BST2D)?
Answer: binds

Question: Does B1 bind [1]?
Answer: binds

Question: Does B1 bind [2]?
Answer: binds

Question: Does B1 bind [3]?
Answer: binds

Question: Does B1 bind [4]?
Answer: binds

Question: Does B1 bind [5]?
Answer: binds

Question: Does B1 bind [6]?
Answer: binds

Question: Does B1 bind [7]?
Answer: binds

Question: Does B1 bind [8]?
Answer: binds

Question: What about the Kd [9] of the same binder?
Answer: 0.1 nM

Question: Does B1 bind [10]?
Answer: no binding (tested: 1 µg/ml)

Question: Does B1 bind [11]?
Answer: no binding (tested: 1 µg/ml)

Question: Does B1 bind [12]?
Answer: no binding (tested: 1 µg/ml)

Question: Does B1 bind [13]?
Answer: no binding (tested: 1 µg/ml)

Question: Does B1 bind [14]?
Answer: no binding (tested: 1 µg/ml)

Question: Does B1 bind [15]?
Answer: no binding (tested: 1 µg/ml)

Question: Does B1 bind (human BST2H)?
Answer: no binding

Source: patent publication US20100278832A1 (Chugai, published 2010)
